Where “and” joins values, the source holds several entries; their conditions need not be identical. Equal entries are not always repeated.
Key:
AcSTn-PAA ELISA = assay type: binding; settings: 200 ng/well PAA antigen; 1:5 dilutions from 1 μM
Protocol: (§1) Anti-STn serum titer is determined using a murine anti-STn bovine submaxillary mucin (BSM) ELISA together with serum profiles observed by glycan microarray. 96-well plates are coated with 1 μg/well of BSM and incubated overnight at 4° C. O-acetylation of BSM antigen is removed by treating wells with 0.1 M sodium hydroxide. Specific binding to STn is determined by treatment of wells with sodium periodate. Periodate treatment destroys the C6 side chain of sialic acid; therefore antibodies raised against STn should not bind to periodate-treated wells. Wells are blocked with PBS 1% ovalbumin (OVA). Serum samples to be assayed are serially diluted in PBS 1% OVA. […] Detection of anti-STn antibodies present in serum is determined using an HRP-conjugated polyclonal goat anti-mouse IgG antibody (Jackson Immunoresearch, West Grove, Pa.). […] Optical densities are measured at 490 nm using a Spectramax microplate reader (Molecular Devices, Sunnyvale, Calif.). The serum titer is obtained by comparison of OD values with a cutoff value calculated as two standard deviations above the mean of optical density values of the negative control. […]
(§2) 18D2 and 18C7 antibodies were further characterized by ELISA comprising antigens other than BSM. […] Binding of anti-STn antibodies was detected using a goat anti-mouse IgG-HRP conjugated antibody (Jackson Immunoresearch Laboratories, West Grove, Pa.). […]

[1] = Glycan microarray analysis, GcSTn; assay type: binding
Protocol: (§3) Optimized glycan arrays comprise 71 chemically synthesized and well-defined glycans, most of which comprise Neu5Ac and Neu5Gc glycan pairs.
(§4) 300 ml of epoxy blocking buffer is prepared by combining 15 ml of 2 M Tris buffer (pH 8) with 0.9 ml of 16.6 M ethanolamine and 284.1 ml of distilled water. The solution is filtered using a 0.2 μM nitrocellulose membrane. The epoxy buffer solution as well as 1 L of distilled water are pre-warmed to 50° C. Glass slides are arranged in a slide holder and quickly submerged in a staining tub with the warmed epoxy blocking buffer. Slides are incubated in the epoxy blocking buffer for 1 hour at 50° C. with periodic shaking to deactivate epoxy binding sites. Next, slides are rinsed and blocked with PBS with 1% OVA at 25° C. for one hour. Serum samples are diluted 1:1000 in PBS with 1% OVA and added to the glycan array for one hour at 25° C. After extensive washing, binding of polyclonal serum antibodies are detected by incubating glycan microarray slides with Cy3-conjugated anti-mouse IgG (Jackson Immunoresearch, West Grove, Pa.) for one hour. […]
(§5) 18D2 and 18C7 clones were expanded and binding properties of these hybridomas were determined by glycan microarray analysis according to Example 4. […] No binding to Tn antigen or other glycans was detected.

GcSTn-PAA ELISA = assay type: binding; settings: 200 ng/well PAA antigen; 1:5 dilutions from 1 μM
Protocol: as §1, §2

[2] = Glycan microarray analysis, 9-O-acetylated AcSTn; assay type: binding
Protocol: as §3, §4, §5

[3] = tested on: ST6GalNAc 1 transfected MDA-MB-231 cells; assay: Flow cytometry-based analysis of antibody binding, STn+ cells; assay type: cell-based, human
Protocol: Flow cytometry-based analysis is carried out to elucidate the curve-dose response for binding of antibodies to cell surface antigens. For these analyses, three cell lines are employed.
MDA-MB-231 cells are human breast cancer cells. They are grown in Earle's Minimum Essential Medium supplemented with 10% fetal calf serum (FCS), 100 μg/ml penicillin, 100 UI/ml streptomycin and 45 μg/ml gentamycin. MCF-7 cells are also human breast cancer cells and are grown under the same conditions as MDA-MB-231 cells. Stably transfected versions of MDA-MB-231 and MCF-7 cells (clone TAH3.P10 for MDA-MB-231 cells and clone A12.1 for MCF-7 cells) that over express GalNAc α2,6-sialyltransferase (ST6GalNAc 1,) are also cultured under the same conditions with the exception of an added 1 mg/ml of G418 to support cells expressing the transgene. ST6GalNAc 1 is an enzyme capable of sialylating GalNAc. […]
For analysis, cells are harvested using StemPro Accutase (Life Technologies, Carlsbad, Calif.) and washed with PBS comprising 5% FBS before pelleting by light centrifugation. Cell numbers and viability are determined by trypan blue dye exclusion analysis and cell concentrations are adjusted to 5×10^6 cells/ml in PBS with 5% FBS. […] Cells are combined with 50 μl solutions of antibody being analyzed or control antibodies and incubated for 1 hour at 4° C. […]

EC50 (AcSTn-PAA ELISA): 0.00171 µM
EC50 (GcSTn-PAA ELISA): 0.00157 µM
EC50, flow cytometry binding to cell-associated STn ([3]; ST6GalNAc 1 transfected MDA-MB-231 cells (STn expressed on MDA cells)): 0.04408 µM and 0.07451 µM
EC50 ([3]; no unit printed (same values in nM in b551, b556)): 65.8 nM
B1: 18D2: anti-STn monoclonal antibody from mouse #4436; IgG2b κ; heavy chain SEQ ID NO 1, light chains SEQ ID NO 2 and 3 (antibody, V domains shown)
VH: QVTLKESGPGILQPSQTLSLTCSFSGFSLSTSNMGIGWIRQPSGKGLEWLAHIWWHDDKYYNPSLKSRLTISKDISNNQVFLKITSVDTADTATYYCAQVPFYYGTSFDVWGTGTTVTVSS
VL 1: DIVMTQSPATLSVTPGDRVSLSCRASQSISDYLHWYQQKSHESPRLLIKYASQSISGIPSRFSGSGSGSDFTLSINSVEPEDVGVYYCQNGHSFPLTFGAGTKLELK
VL 2: QIVLTQSPAIMSASPGETVTMTCSASSSITYMHWYQQKPGTSPKRWIYDTSKLASGVPARFSGSGSGTSYSLTISSMEAEDAATYYCHQRSSYTFGGGTKLEIKR
Glycan Array GcSTn [1]: 50%
mean fluorescence intensity, GcSTn ([1]; glycan microarray): about 7,000
mean fluorescence intensity, Neu5,9Ac2-α2,6-GalNAc [2]: about 4,500
